Test results as given in paper PMC6857588.

Target: filamentous actin (F-actin) (not stated (human platelet or rabbit muscle actin)) (UniProt P68135)
Test: co-sedimentation; 0.5 µM NMY-2S1 incubated with different amounts of actin, 150,000 g for 1.5 h at room temperature; percent of NMY-2 S1 in the pellet fitted with a one-site specific binding model

Substance	Kd [nM]
NMY-2(R252A)S1 (NMY-2 S1 fragment R252A bound to MLC-4 and MLC-5) (from UniProt G5EBY3 1-874; Q09510 1-172; Q9XVI9 1-142) (complex)	2460
NMY-2(S251A)S1 (NMY-2 S1 fragment S251A bound to MLC-4 and MLC-5) (from UniProt G5EBY3 1-874; Q09510 1-172; Q9XVI9 1-142) (complex)	62
wild-type NMY-2S1 (NMY-2 S1 fragment bound to MLC-4 and MLC-5) (from UniProt G5EBY3 1-874; Q09510 1-172; Q9XVI9 1-142) (complex)	660
NMY-2(S250A)S1 (NMY-2 S1 fragment S250A bound to MLC-4 and MLC-5) (from UniProt G5EBY3 1-874; Q09510 1-172; Q9XVI9 1-142) (complex)	660
